The target of assay [1] is HLA-B*51:01. As to the kind of experiment: IEDB peptide-MHC binding, purified MHC/competitive/fluorescence; filed as Kd, often an IC50 or EC50 that approximates it; ≥ and ≤ were set here for values at or beyond the usual limits of such assays. To be noted: source organism: Zaire ebolavirus.
The target of assay [2] is HLA-B*18:01. Described as above. To be noted: source organism: Zaire ebolavirus.
For assay [3], the target named is HLA-A*26:01. The description is as above. To be noted: source organism: Zaire ebolavirus.
Assay [4] addresses HLA-B*39:01. The description is as above.
The target of assay [5] is HLA-B*57:01. Described as above. The note with it: source organism: Zaire ebolavirus.
For assay [6], the target named is HLA-A*02:01. The assay is described as above. To be noted: source organism: Zaire ebolavirus.
The target of assay [7] is HLA-B*46:01. Described as above. To be noted: source organism: Zaire ebolavirus.
For assay [8], the target named is HLA-A*69:01. The description is as above. The note with it: source organism: Zaire ebolavirus.
The target of assay [9] is HLA-B*27:03. The description is as above. The note with it: source organism: Zaire ebolavirus.
The target of assay [10] is HLA-A*02:12. As to the kind of experiment: IEDB peptide-MHC binding, purified MHC/direct/fluorescence; filed as Kd, often an IC50 or EC50 that approximates it; ≥ and ≤ were set here for values at or beyond the usual limits of such assays. To be noted: source organism: Zaire ebolavirus.
The target in assay [11] is HLA-A*03:01. The description is as above.
The target in assay [12] is HLA-A*24:03. The description is as above. The note with it: source organism: Zaire ebolavirus.
In assay [13] the target is HLA-A*68:02. The assay is described as above. The note with it: source organism: Zaire ebolavirus.
Assay [14] addresses HLA-A*02:16. The description is as above. To be noted: source organism: Zaire ebolavirus.
Assay [15] addresses HLA-B*08:01. The description is as above. The note with it: source organism: Ebola virus - Eckron (Zaire, 1976).
The target of assay [16] is HLA-A*02:03. The description is as above. To be noted: source organism: Zaire ebolavirus.
In assay [17] the target is HLA-B*07:02. Described as above.
The target in assay [18] is HLA-A*02:19. The description is as above. To be noted: source organism: Zaire ebolavirus.
The target of assay [19] is HLA-A*02:11. Described as above. To be noted: source organism: Zaire ebolavirus.
For assay [20], the target named is HLA-A*01:01. Kind of assay: IEDB peptide-MHC binding, purified MHC/competitive/fluorescence; filed as Kd, often an IC50 or EC50 that approximates it; ≥ and ≤ were set here for values at or beyond the usual limits of such assays. The note with it: source organism: Mycobacterium tuberculosis variant bovis BCG str. Pasteur 1173P2.
In assay [21] the target is HLA-B*83:01. The description is as above. The note with it: source organism: Mycobacterium tuberculosis variant bovis BCG str. Pasteur 1173P2.
Assay [22] has as its target HLA-B*15:01. The assay is described as above. The note with it: source organism: Mycobacterium tuberculosis variant bovis BCG str. Pasteur 1173P2.
Assay [23] has as its target HLA-B*45:06. The description is as above. To be noted: source organism: Mycobacterium tuberculosis variant bovis BCG str. Pasteur 1173P2.
The target in assay [24] is HLA-B*15:42. Described as above. To be noted: source organism: Mycobacterium tuberculosis variant bovis BCG str. Pasteur 1173P2.
Assay [25] deals with HLA-B*51:01. Kind of assay: IEDB peptide-MHC binding, purified MHC/direct/fluorescence; filed as Kd, often an IC50 or EC50 that approximates it; ≥ and ≤ were set here for values at or beyond the usual limits of such assays. The note with it: source organism: Mycobacterium tuberculosis.
Assay [26] deals with HLA-B*18:01. Described as above. The note with it: source organism: Mycobacterium tuberculosis.
The target in assay [27] is HLA-B*58:01. Described as above.
In assay [28] the target is HLA-B*27:05. The description is as above.
In assay [29] the target is HLA-A*26:01. Described as above. The note with it: source organism: Mycobacterium tuberculosis str. Haarlem.
Assay [30] deals with HLA-B*40:01. Described as above. The note with it: source organism: Mycobacterium tuberculosis.
The target of assay [31] is HLA-B*15:17. Described as above. The note with it: source organism: Mycobacterium tuberculosis.
Assay [32] concerns the target HLA-A*31:01. The assay is described as above.
In assay [33] the target is HLA-B*15:09. The description is as above. To be noted: source organism: Mycobacterium tuberculosis str. Haarlem.
Assay [34] concerns the target HLA-B*57:01. The description is as above.
For assay [35], the target named is HLA-A*11:01. The description is as above. To be noted: source organism: Mycobacterium tuberculosis.
Assay [36] has as its target HLA-A*02:01. The description is as above. The note with it: source organism: Mycobacterium tuberculosis.
The target of assay [37] is HLA-B*46:01. The description is as above. The note with it: source organism: Mycobacterium tuberculosis.
Assay [38] has as its target HLA-A*69:01. Described as above. To be noted: source organism: Mycobacterium tuberculosis.
For assay [39], the target named is HLA-B*48:01. Described as above. To be noted: source organism: Mycobacterium tuberculosis.
Assay [40] has as its target HLA-A*01:01. Described as above.
Assay [41] concerns the target HLA-B*44:02. The assay is described as above.
Assay [42] has as its target HLA-B*39:01. The assay is described as above.
Assay [43] addresses HLA-B*15:01. The description is as above. The note with it: source organism: Mycobacterium tuberculosis.
[44] abbreviates: source organism: Zaire ebolavirus.
The mark [45] stands for this setting: source organism: Mycobacterium tuberculosis.
Where [46] appears, read: source organism: Mammarenavirus lassaense.

A value given as a limit tells only on which side of the number the result lay.

What is called Kd is the concentration at which binding is half-saturated. Read a low Kd as higher affinity.

With VVRVRRELL, the Kd in [1], in assay [2], in assay [3], in assay [4] (setting [44]), in [5] and in assay [6] was ≥ 20 µM in each case. The Kd in assay [7], in assay [8], in assay [9], in assay [10], in [11] (setting [44]) and in assay [12] was ≥ 20 µM in each case. Further, the Kd in assay [13] was ≥ 20 µM; in assay [14] it was ≥ 20 µM; in assay [15], 6 µM; in assay [16] it was ≥ 20 µM; in assay [17] (source organism: Ebola virus - Eckron (Zaire, 1976)), 8 µM; in [18], ≥ 20 µM. In assay [19], the Kd was ≥ 20 µM.
Regarding RPRCAYLPF, the Kd in [20] is ≥ 20 µM; in [21] it was 0.0317 µM; in [4] (source organism: Mycobacterium tuberculosis variant bovis BCG str. Pasteur 1173P2), ≥ 20 µM; in assay [22] it was 2.17 µM; in assay [23], ≥ 5 µM; in assay [24], ≥ 5 µM. In addition, the Kd in assay [25] is ≥ 20 µM; in [26], 5.59 µM; in assay [11] (setting [45]), ≥ 20 µM; in assay [27] (setting [45]), ≥ 20 µM; in [28] (setting [45]) it was ≥ 20 µM; in assay [29], 2.6 µM. In addition, the equilibrium dissociation constant (Kd) in [30] was ≥ 20 µM; in assay [31], 0.197 µM; in [32] (setting [45]), ≥ 20 µM; in assay [33], ≥ 20 µM; in assay [34] (setting [45]) it was ≥ 20 µM; in [35], ≥ 20 µM. Also, the Kd in assay [36] is ≥ 20 µM; in [37], 5.59 µM; in assay [38] it was ≥ 20 µM; in [39], ≥ 20 µM.
As to NQFGTMPSL, the Kd was ≥ 20 µM in assay [40] (setting [46]); ≥ 20 µM in [41] (setting [46]); ≥ 20 µM in assay [11] (setting [46]); ≥ 20 µM in assay [27] (setting [46]); ≥ 20 µM in assay [28] (setting [46]); 0.0011 µM in assay [42] (setting [46]). Besides, the Kd in [32] (setting [46]), in assay [34] (setting [46]) and in assay [17] (setting [46]) was ≥ 20 µM in each case.
Regarding FHVNPAFVL, the Kd in [40] (setting [45]) was ≥ 20 µM; in assay [41] (setting [45]) it was ≥ 20 µM; in assay [11] (setting [45]), ≥ 20 µM; in [27] (setting [45]) it was ≥ 20 µM; in [28] (setting [45]), ≥ 20 µM; in [42] (setting [45]), 0.014 µM. For the same sequence, the Kd in assay [32] (setting [45]), in [34] (setting [45]), in assay [43], in [35], in [17] (setting [45]) and in assay [37] was ≥ 20 µM in each case.
MRMGDLHLL returned a Kd in assay [42] (source organism: Influenza A virus (A/swine/Italy/1850/1977(H3N2))) of 0.0396 µM.

Values taken from the Immune Epitope Database (IEDB).
